One test addresses T1, O9-bA.
T1 chain: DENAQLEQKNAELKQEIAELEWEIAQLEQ
Kind of test: two-hybrid library CCNG1.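 Also: natural log of median RNA to DNA barcode read ratio; higher means stronger binding.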

The target of a further test is T2, O7-bA.
T2 chain: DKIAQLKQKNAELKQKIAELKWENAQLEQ
In words: two-hybrid library CCNG1.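 Also: natural log of median RNA to DNA barcode read ratio; higher means stronger binding.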

The next test concerns the target T3, O8-bA.
T3 chain: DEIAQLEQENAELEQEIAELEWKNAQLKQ
Kind of test: two-hybrid library CCNG1.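 Also: natural log of median RNA to DNA barcode read ratio; higher means stronger binding.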

For a further test, the target named is T4, 4H967-bA.
T4 chain: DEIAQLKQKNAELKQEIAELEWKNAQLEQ
In words: two-hybrid library CCNG1.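 Also: natural log of median RNA to DNA barcode read ratio; higher means stronger binding.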

The target of a further test is T5, 4H953-bA.
T5 chain: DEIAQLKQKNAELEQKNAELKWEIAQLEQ
In words: two-hybrid library CCNG1.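 Also: natural log of median RNA to DNA barcode read ratio; higher means stronger binding.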

The next test has as its target T6, 4H968-bA.
T6 chain: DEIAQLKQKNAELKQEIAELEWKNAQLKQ
Kind of test: two-hybrid library CCNG1.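 Also: natural log of median RNA to DNA barcode read ratio; higher means stronger binding.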

A further test deals with T7, 4H797-AA.
T7 chain: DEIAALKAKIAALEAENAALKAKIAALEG
In words: two-hybrid library CCmax.

The next test has as its target T8, 4H883-AA.
T8 chain: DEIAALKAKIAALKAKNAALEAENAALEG
Kind of test: two-hybrid library CCmax. Conditions: mean of both orientations.

The target of another test is T9, 4H967-AA.
T9 chain: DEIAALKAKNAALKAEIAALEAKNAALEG
Kind of test: two-hybrid library CCmax. Conditions: mean of both orientations.

In the next test the target is T10, 4H918-AA.
T10 chain: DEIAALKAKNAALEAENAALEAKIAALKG
In words: two-hybrid library CCmax. As to conditions: mean of both orientations.

A further test concerns the target T11, 4H794-AA.
T11 chain: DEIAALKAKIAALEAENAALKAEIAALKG
Kind of test: two-hybrid library CCmax. As to conditions: mean of both orientations.

A further test has as its target T12, 4H993-AA.
T12 chain: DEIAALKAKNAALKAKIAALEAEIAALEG
In words: two-hybrid library CCmax. As to conditions: mean of both orientations.

Another test addresses T13, 4H780-AA.
T13 chain: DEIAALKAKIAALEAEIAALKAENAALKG
In words: two-hybrid library CCmax. As to conditions: mean of both orientations.

The target in another test is T14, 4H881-AA.
T14 chain: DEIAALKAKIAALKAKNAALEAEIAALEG
Kind of test: two-hybrid library CCmax. As to conditions: mean of both orientations.

A further test deals with T15, 4H717-AA.
T15 chain: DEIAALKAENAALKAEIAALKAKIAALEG
In words: two-hybrid library CCmax.

The target of another test is T16, 4H953-AA.
T16 chain: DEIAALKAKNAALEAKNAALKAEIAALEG
Kind of test: two-hybrid library CCmax. Conditions: mean of both orientations.

The target in a further test is T17, 4H906-AA.
T17 chain: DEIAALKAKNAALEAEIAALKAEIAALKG
In words: two-hybrid library CCmax. Conditions: mean of both orientations.

For the next test, the target named is T18, 4H87-AA.
T18 chain: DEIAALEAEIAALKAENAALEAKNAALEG
In words: two-hybrid library CCmax. Conditions: mean of both orientations.

Another test has as its target T19, 4H390-AA.
T19 chain: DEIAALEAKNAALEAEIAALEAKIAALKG
Kind of test: two-hybrid library CCmax. As to conditions: mean of both orientations.

The target in the next test is T20, 4H816-AA.
T20 chain: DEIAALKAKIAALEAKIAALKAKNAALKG
Kind of test: two-hybrid library CCmax. As to conditions: mean of both orientations.

The next test has as its target T21, 4H3134-AA.
T21 chain: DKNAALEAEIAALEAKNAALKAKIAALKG
Kind of test: two-hybrid library CCmax. Conditions: mean of both orientations.

In another test the target is T22, 4H3625-AA.
T22 chain: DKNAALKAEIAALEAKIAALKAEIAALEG
Kind of test: two-hybrid library CCmax. As to conditions: mean of both orientations.

A further test deals with T23, 4H3409-AA.
T23 chain: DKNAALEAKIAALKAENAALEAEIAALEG
In words: two-hybrid library CCmax. As to conditions: mean of both orientations.

The target of the next test is T24, 4H510-AA.
T24 chain: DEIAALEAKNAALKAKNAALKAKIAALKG
Kind of test: two-hybrid library CCmax. As to conditions: mean of both orientations.

Another test addresses T25, 4H3940-AA.
T25 chain: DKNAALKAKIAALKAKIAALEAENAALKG
Kind of test: two-hybrid library CCmax. As to conditions: mean of both orientations.

Another test concerns the target T26, 4H2985-AA.
T26 chain: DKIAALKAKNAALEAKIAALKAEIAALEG
Kind of test: two-hybrid library CCmax.

For another test, the target named is T27, 4H775-AA.
T27 chain: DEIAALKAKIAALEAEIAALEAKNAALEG
In words: two-hybrid library CCmax. As to conditions: mean of both orientations.

The target of a further test is T28, 4H3613-bA.
T28 chain: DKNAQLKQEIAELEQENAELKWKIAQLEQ
Kind of test: two-hybrid library CCNG1.

A further test concerns the target T29, 4H3628-bA.
T29 chain: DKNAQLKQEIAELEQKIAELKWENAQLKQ
In words: two-hybrid library CCNG1.

The next test concerns the target T30, 4H906-bA.
T30 chain: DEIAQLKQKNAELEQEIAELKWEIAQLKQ
Kind of test: two-hybrid library CCNG1.

A further test concerns the target T31, 4H626-bA.
T31 chain: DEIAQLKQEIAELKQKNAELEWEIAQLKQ
In words: two-hybrid library CCNG1.

The target in a further test is T32, 4H591-bA.
T32 chain: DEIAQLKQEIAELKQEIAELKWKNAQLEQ
In words: two-hybrid library CCNG1.

Another test addresses T33, 4H3926-bA.
T33 chain: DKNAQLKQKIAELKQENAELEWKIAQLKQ
Kind of test: two-hybrid library CCNG1.

A further test deals with T34, 4H3497-bA.
T34 chain: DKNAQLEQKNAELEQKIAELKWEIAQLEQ
In words: two-hybrid library CCNG1.

Another test concerns the target T35, APC5009-AA.
T35 chain: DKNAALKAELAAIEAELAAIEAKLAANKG
In words: two-hybrid library CCmax. As to conditions: mean of both orientations.

Another test concerns the target T36, APC9806-AA.
T36 chain: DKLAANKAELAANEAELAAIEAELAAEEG
In words: two-hybrid library CCmax. As to conditions: mean of both orientations.

The target in another test is T37, APC4336-AA.
T37 chain: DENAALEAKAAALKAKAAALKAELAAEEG
In words: two-hybrid library CCmax. As to conditions: mean of both orientations.

The target of the next test is T38, APC6088-AA.
T38 chain: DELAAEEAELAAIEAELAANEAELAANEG
Kind of test: two-hybrid library CCmax. Conditions: mean of both orientations.

A further test has as its target T39, APC3323-AA.
T39 chain: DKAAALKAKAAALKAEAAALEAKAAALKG
In words: two-hybrid library CCmax.

The next test concerns the target T40, APC3881-AA.
T40 chain: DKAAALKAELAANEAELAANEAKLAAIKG
Kind of test: two-hybrid library CCmax. Conditions: mean of both orientations.

A further test addresses T41, APC5531-AA.
T41 chain: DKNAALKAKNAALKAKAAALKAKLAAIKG
Kind of test: two-hybrid library CCmax. As to conditions: mean of both orientations.

A further test has as its target T42, APC8516-AA.
T42 chain: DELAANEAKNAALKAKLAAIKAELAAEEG
Kind of test: two-hybrid library CCmax. As to conditions: mean of both orientations.

In another test the target is T43, APC9182-AA.
T43 chain: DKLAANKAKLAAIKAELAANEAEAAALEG
In words: two-hybrid library CCmax. Conditions: mean of both orientations.

The target of the next test is T44, APC8401-AA.
T44 chain: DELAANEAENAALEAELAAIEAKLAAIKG
Kind of test: two-hybrid library CCmax. As to conditions: mean of both orientations.

The next test concerns the target T45, APC3354-AA.
T45 chain: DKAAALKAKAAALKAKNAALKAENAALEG
In words: two-hybrid library CCmax. As to conditions: mean of both orientations.

A further test deals with T46, APC9291-AA.
T46 chain: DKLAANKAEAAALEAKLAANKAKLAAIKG
In words: two-hybrid library CCmax. As to conditions: mean of both orientations.

The target of another test is T47, APC7524-AA.
T47 chain: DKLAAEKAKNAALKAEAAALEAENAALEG
In words: two-hybrid library CCmax. Conditions: mean of both orientations.

In another test the target is T48, APC542-AA.
T48 chain: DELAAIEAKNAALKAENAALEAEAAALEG
Kind of test: two-hybrid library CCmax. As to conditions: mean of both orientations.

In the next test the target is T49, APC4100-AA.
T49 chain: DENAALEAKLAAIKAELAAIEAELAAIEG
In words: two-hybrid library CCmax. As to conditions: mean of both orientations.

The target in a further test is T50, APC9141-AA.
T50 chain: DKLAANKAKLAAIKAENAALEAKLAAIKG
Kind of test: two-hybrid library CCmax. Conditions: mean of both orientations.

The next test addresses T51, 4H891-AA.
T51 chain: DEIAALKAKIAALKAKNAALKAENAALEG
Kind of test: two-hybrid library CCmax. Conditions: mean of both orientations.

For the next test, the target named is T52, 4H94-AA.
T52 chain: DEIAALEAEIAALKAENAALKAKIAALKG
Kind of test: two-hybrid library CCmax. Conditions: mean of both orientations.

The next test has as its target T53, 4H850-AA.
T53 chain: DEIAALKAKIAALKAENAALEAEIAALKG
In words: two-hybrid library CCmax. As to conditions: mean of both orientations.

For the next test, the target named is T54, 4H909-AA.
T54 chain: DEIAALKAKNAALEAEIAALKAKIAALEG
In words: two-hybrid library CCmax. As to conditions: mean of both orientations.

For a further test, the target named is T55, 4H930-AA.
T55 chain: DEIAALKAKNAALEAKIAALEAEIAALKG
Kind of test: two-hybrid library CCmax. Conditions: mean of both orientations.

B1: O5-bA (peptide)
chain: DENAQLEQEIAELEQKNAELKWEIAQLEQ
B1: the interaction score was -0.954 with O9-bA, -0.303 in the test with O7-bA and -0.893 with O8-bA.

B2: 4H953-bA (peptide)
chain: DEIAQLKQKNAELEQKNAELKWEIAQLEQ
As to B2, the interaction score was -1.11 in the test with 4H967-bA, -0.716 in the test with O7-bA, -0.648 with 4H953-bA and -1.33 with 4H968-bA.

B3: 4H717-AA (peptide)
chain: DEIAALKAENAALKAEIAALKAKIAALEG
As to B3, the interaction score with 4H797-AA is -1.4; in the test with 4H883-AA, -1.82; with 4H967-AA, -0.559; with 4H918-AA, -1.34; with 4H794-AA, -1.37; with 4H993-AA it was 0.0522. Further, the interaction score with 4H780-AA was -1.38; with 4H881-AA it was -1.15; in the test with 4H717-AA, 1.89; with 4H953-AA, -1.87; in the test with 4H906-AA, -1.19.

B4: 4H2985-AA (peptide)
chain: DKIAALKAKNAALEAKIAALKAEIAALEG
For the molecule B4, the interaction score in the test with 4H87-AA was -1.48; with 4H390-AA, 1.71; with 4H816-AA, -0.519; with 4H3134-AA it was -0.682; in the test with 4H3625-AA, 0.889; with 4H3409-AA, -0.847. Further, the interaction score was -0.541 in the test with 4H510-AA, -0.918 with 4H3940-AA, 0.681 with 4H2985-AA and -0.922 in the test with 4H775-AA.

B5: O6-bA (peptide)
chain: DKNAQLKQKIAELKQENAELEWKIAQLKQ
For B5, the results for the interaction score with O9-bA, with O7-bA and in the test with O8-bA were 0.339, 0.795 and 1.39, respectively.

B6: O7-bA (peptide)
chain: DKIAQLKQKNAELKQKIAELKWENAQLEQ
Regarding B6, the interaction score with O9-bA is -0.962; with O7-bA, -1.12; in the test with O8-bA, 2.08.

B7: 4H3497-bA (peptide)
chain: DKNAQLEQKNAELEQKIAELKWEIAQLEQ
Take B7: the interaction score is -1.15 with 4H3613-bA; -0.547 with 4H3628-bA; -1.2 with 4H906-bA; -1.45 with 4H626-bA; -1.08 with 4H591-bA; -1.24 with 4H3926-bA. This molecule also came in with an interaction score in the test with 4H3497-bA of -0.278.

B8: APC3323-AA (peptide)
chain: DKAAALKAKAAALKAEAAALEAKAAALKG
As to B8, the interaction score in the test with APC5009-AA is -1.38; in the test with APC9806-AA, -1.66; with APC4336-AA, -2.27; with APC6088-AA, -1.65; with APC3323-AA it was 0.173; in the test with APC3881-AA it was -1.64. The interaction score with APC5531-AA is -1.7; with APC8516-AA it was -1.75; with APC9182-AA it was -1.64; with APC8401-AA it was -1.35; in the test with APC3354-AA, -1.64; with APC9291-AA, -1.84. In addition, the interaction score in the test with APC7524-AA was -1.5; with APC542-AA it was -1.45; with APC4100-AA it was 1.59; with APC9141-AA it was -2.12.

B9: 4H797-AA (peptide)
chain: DEIAALKAKIAALEAENAALKAKIAALEG
B9: the interaction score with 4H891-AA is -1.35; with 4H797-AA, 1.76; with 4H883-AA, -1.4; with 4H967-AA, -1.81; with 4H94-AA, 0.948; with 4H850-AA, 1.16. Besides, the interaction score in the test with 4H918-AA was -0.389; in the test with 4H909-AA, -0.899; with 4H953-AA, -0.955; with 4H930-AA it was -1.72.

Source of the values: publication PMC10397247.
